Test results: article PMC7380489

Molecular target: human TRIM28 N-terminal RBCC domain (human)
Assay: SEC-MALS + other: SEC-SAXS + AUC

stoichiometry N: 3
Substance: human TRIM28 N-terminal RBCC domain (domain or fragment)
